# Data taken from patent US8338155B2, “Modified mevalonate kinase with reduced feedback inhibition” (DSM IP Assets B.V., priority 2004, dated 2012).
# Numbering of substitutions follows the chain as printed. Names may count otherwise.
# B1: F59S: Saccharomyces cerevisiae mevalonate kinase mutant with substitution F59S (protein, listed as Saccharomyces cerevisiae)
# chain: MSLPFLTSAPGKVIIFGEHSAVYNKPAVAASVSALRTYLLISESSAPDTIELDFPDISSNHKWSINDFNAITEDQVNSQKLAKAQQATDGLSQELVSLLDPLLAQLSESFHYHAAFCFLYMFVCLCPHAKNIKFSLKSTLPIGAGLGSSASISVSLALAMAYLGGLIGSNDLEKLSENDKHIVNQWAFIGEKCIHGTPSGIDNAVATYGNALLFEKDSHNGTINTNNFKFLDDFPAIPMILTYTRIPRSTKDLVARVRVLVTEKFPEVMKPILDAMGECALQGLEIMTKLSKCKGTDDEAVETNNELYEQLLELIRINHGLLVSIGVSHPGLELIKNLSDDLRIGSTKLTGAGGGGCSLTLLRRDITQEQIDSFKKKLQDDFSYETFETDLGGTGCCLLSAKNLNKDLKIKSLVFQLFENKTTTKQQIDDLLLPGNTNLPWTS
# B2: K83E, S249P: Saccharomyces cerevisiae mevalonate kinase mutant with substitutions K83E and S249P (protein, listed as Saccharomyces cerevisiae)
# chain: B1 chain with S59F, K83E, S249P
# B3: L106P, S218P: Saccharomyces cerevisiae mevalonate kinase mutant with substitutions L106P and S218P (protein, listed as Saccharomyces cerevisiae)
# chain: B1 chain with S59F, L106P, S218P
# B4: H111N, K375N: Saccharomyces cerevisiae mevalonate kinase mutant with substitutions H111N and K375N (protein, listed as Saccharomyces cerevisiae)
# chain: B1 chain with S59F, H111N, K375N
# B5: P55L, C117S: Saccharomyces cerevisiae mevalonate kinase mutant with substitutions P55L and C117S (protein, listed as Saccharomyces cerevisiae)
# chain: B1 chain with P55L, S59F, C117S
# B6: I142N, L158S, L231I, T367S: Saccharomyces cerevisiae mevalonate kinase mutant with substitutions I142N, L158S, L231I and T367S (protein, listed as Saccharomyces cerevisiae)
# chain: B1 chain with S59F, I142N, L158S, L231I, T367S
# B7: WT: non-mutated Saccharomyces cerevisiae mevalonate kinase containing a His6-tag (SEQ ID NO:3) (protein, listed as Saccharomyces cerevisiae)
# chain: MRGSHHHHHHGSACSLPFLTSAPGKVIIFGEHSAVYNKPAVAASVSALRTYLLISESSAPDTIELDFPDISFNHKWSINDFNAITEDQVNSQKLAKAQQATDGLSQELVSLLDPLLAQLSESFHYHAAFCFLYMFVCLCPHAKNIKFSLKSTLPIGAGLGSSASISVSLALAMAYLGGLIGSNDLEKLSENDKHIVNQWAFIGEKCIHGTPSGIDNAVATYGNALLFEKDSHNGTINTNNFKFLDDFPAIPMILTYTRIPRSTKDLVARVRVLVTEKFPEVMKPILDAMGECALQGLEIMTKLSKCKGTDDEAVETNNELYEQLLELIRINHGLLVSIGVSHPGLELIKNLSDDLRIGSTKLTGAGGGGCSLTLLRRDITQEQIDSFKKKLQDDFSYETFETDLGGTGCCLLSAKNLNKDLKIKSLVFQLFENKTTTKQQIDDLLLPGNTNLPWTS
# modifications: His6-tag
# Columns and labels:
# [1] = tested on: Saccharomyces cerevisiae mevalonate kinase; experiment: Inhibition of mevalonate kinase activity by the feedback inhibitor FPP: feedback resistance; format: biochemical; conditions: 1 μM FPP; % resistance=100·((d/c)−(b/a))/(1−(b/a)) relative to wild-type
# Procedure: “Feedback resistance” as used herein may be any increase in resistance to “feedback inhibition” (as defined above). Feedback resistance can be analyzed in different ways known to those skilled in the art. An appropriate example of such an analysis is shortly described herein: mevalonate kinase activity is measured in an activity assay at non-saturating concentrations of for instance ATP (or of another phosphate donor) and mevalonate (or mevalonate analogue), i.e., at for instance ATP (or phosphate donor) and mevalonate (or mevalonate analogue) concentrations around which the reaction rate is sensitive to changes of these substrate concentrations, e.g., at concentrations around the respective Km values of the enzyme under investigation for these substrates. The activities of both wild-type mevalonate kinase and of a variant/mutant of this enzyme are measured under otherwise identical conditions both in the absence and presence of a relevant concentration of a feedback inhibitor, i.e., at a concentration of feedback inhibitor affording significant inhibition of the wild-type mevalonate kinase. If the extent of inhibition (e.g., % inhibition) by the feedback inhibitor is lower for the mutant than for the wild-type enzyme, then the mutant is feedback resistant in the context of the present patent application. Once a feedback resistant variant/mutant has been identified, the same procedure as described above may be applied to identify further improved mutants, i.e., mutants that are even more feedback resistant. Feedback resistance (%) is calculated as follows: if (a) and (b) are the measured mevalonate kinase activities of the wild-type enzyme in the absence and presence, respectively, of the feedback inhibitor (e.g., FPP), and if (c) and (d) are the measured mevalonate kinase activities of the mutant enzyme in the absence and presence, respectively, of the same feedback inhibitor, then % feedback resistance is: % resistance=100·((d/c)−(b/a))/(1−(b/a))
# (§1) For preparing mevalonate as substrate, 130 mg of DL-mevalonate lactone (FLUKA Chemie AG, Buchs, Switzerland) were dissolved in 5.5 ml of 0.2 M KOH and incubated for 15 min at 50° C. The solution was then adjusted to pH 7.0 by addition of 0.1 M HCl at room temperature (RT). Except if stated otherwise, the assay mixture consisted of 100 mM K2BPO/KH2PO4 (pH 7.0), 1 mM ATP, 2 mM MgCl2, 1 mM mevalonate, 0.5 mM phosphoenolpyruvate (PEP), 0.32 mM NADH, 20 U/ml pyruvate kinase and 27 U/ml lactate dehydrogenase (Sigma-Aldrich, St. Louis, Mo., USA). Inhibition was tested by adding 1 μM FPP.
# (§2) Purification of His6-tagged mevalonate kinase and of His6-tagged mevalonate kinase mutant enzymes was done with Ni-NTA chromatography using the QIAexpress system/reagents of Qiagen. Upon addition of purified (His6-tagged) mevalonate kinase, enzymatic reaction reflected by consumption of NADH was followed by photometric measurement at 340 nm. One unit (1 U) of mevalonate kinase activity catalyzes the phosphorylation of 1 μmol of mevalonate per min.
# (§3) Preparation of Mevalonate and Activity Measurement was Exactly Performed as Described in Example 1. 1 μM FPP was used for inhibition assays performed with the Saccharomyces cerevisiae mevalonate kinase wild-type enzyme and its mutants.
# Feedback resistance (%) was calculated according to the following formula: % resistance=100·((d/c)−(b/a))/(1−(b/a)) wherein (a) and (b) refer to the measured mevalonate kinase activities of the wild-type enzyme in the absence and presence, respectively, and (c) and (d) refer to the measured mevalonate kinase activities of the mutant enzyme in the absence and presence, respectively, of FPP. The results are shown in Tab. 1, wherein WT represents the non-mutated mevalonate kinase containing a His6-tag (SEQ ID NO:3).
# [2] = tested on: Saccharomyces cerevisiae mevalonate kinase; experiment: Mevalonate kinase activity assay (NADH consumption, photometric at 340 nm): specific activity; format: biochemical; conditions: purified His6-tagged enzyme; WT = non-mutated His6-tagged mevalonate kinase
# Description: Methods for measuring specific activity are known to the person skilled in the art. The specific activity may for instance be determined via measuring the consumption of NADH. Suitable conditions for such measurement may be those as e.g. outlined in Example 1 except that, typically, saturating substrate concentrations are used or, in the case of enzyme inhibition at high substrate concentrations, at substrate concentrations that provide maximal activity under the particular experimental conditions.
# as §1, §2, §3
Molecule,Feedback resistance (%) [1],Specific activity (% of wild-type) [2]
B1,56%,31 % of wild-type
B2,37%,78 % of wild-type
B3,24%,42 % of wild-type
B4,65%,87 % of wild-type
B5,58%,60 % of wild-type
B6,58%,61 % of wild-type
B7,0%,100 % of wild-type
